Test results reported in US20250277788A1 (GUIZHOU MEDICAL UNIVERSITY, published 2025).

B1: H6-AP fusion protein (single-chain antibody H6 fused to alkaline phosphatase) (other)
chain: MAEVKLAESGPELVRPGVSVKISCKGSGYTFTDYPMHWVKQSHAKSLEWIGVISTYSGNTNYNQKFRGKATMTVDKSSSTAYMELARLTSEDSAIYYCTRGGNYGFDPWGQGTTLTVSSAKTTAPSVGGGGSGGGGSGGGGSDIQMTQSHKFLSTSVGDRVNITCKASQDVGTAVAWYQQKPGQSPKLLIYWASTRHTGVPDRFTGSGSGTDFTLTITNVQSEDLAEYFCQQYSSYPLTFGSGTKIEMKRAVDSSGSTSGSGKPGSGEGSTAAAARAPEMPVLENRAAQGDITAPGGARRLTGDQTAALRDSLSDKPAKNIILLIGDGMGDSEITAARNYAEGAGGFFKGIDALPLTGQYTHYALNKKTGKPDYVTSSAASATAWSTGVKTYNGALGVDIHEKDHPTILEMAKAAGLATGNVSTAELQDATPAALVAHVTSRKCYGPSATSEKCPGNALEKGGKGSITEQLLNARADVTLGGGAKTFAETATAGEWQGKTLREQAQARGYQLVSDAASLNSVTEANQQKPLLGLFADGNMPVRWLGPKATYHGNIDKPAVTCTPNPQRNDSVPTLAQMTDKAIELLSKNEKGFFLQVEGASIDKQDHAANPCGQIGETVDLDEAVQRALEFAKKEGNTLVIVTADHAHASQIVAPDTKAPGLTQALNTKDGAVMVMSYGNSEEDSQEHTGSQLRIAAYGPHAANVVGLTDQTDLFYTMKAALGDIAHHHHHH
notes: also called fusion protein H6-AP
B2: SARS-COV-2 N protein-specific single-chain antibody H6 (scFv, V domains shown)
VH: EVKLAESGPELVRPGVSVKISCKGSGYTFTDYPMHWVKQSHAKSLEWIGVISTYSGNTNYNQKFRGKATMTVDKSSSTAYMELARLTSEDSAIYYCTRGGNYGFDPWGQGTTLTVSS
notes: also called H6 antibody; scFv H6; not shown: C-terminal tags from the pHENHi vector (c-myc and a His tag, with the NotI junction)

What was measured:
[1] = biological target: T1, recombinant SARS-COV-2 N protein (SARS-COV-2, UniProt P0DTC9 1-419); assay: direct ELISA, N protein coated at 5 µg/mL, pNPP colour development for 90 min
T1 construct: also called nucleocapsid protein

[2] = biological target: T1, recombinant SARS-COV-2 N protein; assay: direct ELISA, N protein coated at 5 µg/mL, pNPP colour development
[3] = biological target: T1, recombinant SARS-COV-2 N protein; assay: SPR (UA Biotech); orientation not stated

Row | Binder | fold of OD405 nm over control group (blank blocked wells) at 90 min [1] [fold] | fold of OD405 nm over control group (blank blocked wells) [2] [fold] | Kd [3] [nM] | koff [3] [s⁻¹] | kon [3] [M⁻¹ s⁻¹]
1 | B1 | 31 | 16 | – | – | –
2 | B2 | – | – | 0.298 | 0.000286 | 958000
